Results reported in the nanobody polyreactivity screen of Harvey et al. (2022).

Assay: yeast display, Sf9 membrane polyspecificity reagent, FACS + sequencing; frameworks hold sequencing errors
How it was run: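 Sorting gates, low and high (top ~1%), were placed on anti-HA fluorescence to track expression and on streptavidin fluorescence to track reagent binding. A clone's polyreactivity label is taken from the gate it came out of. The reagent was 10% biotinylated, detergent-solubilized Sf9 membrane, applied for 1 hour at 4 °C to galactose-induced yeast display cells.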

Sequence	polyreactivity (PSR sort gate)
QVQLLESGGGLVQSGGSLRVSCAASGRNFGRYDMGWYRQAPGKERELVATISSRGGNTYYADSVKGRVTISRDNAMNTVYLQMNSLTPDDTAVYYCAAQTYKWYDWGQGTQVTVSS	high polyreactivity
QVQLLESGGGLVQSGGSLRVSCAASGSTFYAYSMGWYRQAPGKERELVAALDSGGSTYADSVKGRFPISRANAKHTVYLQMNSLKPEETAVYYCAADLITRSDYWWTGWIWEYDYWGQGTQVTVSS	low polyreactivity
QVQLLESGVGLVQAGGSLRLSCAASGFTFGYYAMGWYRQAPGKETELVAAISSSDGSTYYADSVKGRFTISRDNAKNTVYLQMNSLKPEDTAVYYCAAEYYSAVYIDEYWYDYWGQGTQVTVSS	high polyreactivity
QVQLLESGVGLVQAGGSLRLSCAASGNTFYHYAMGLYRQAPGKERELVAAISLSGGSTYYADSVKGRFTISRDNAKNTVYLQMNSLKPEDTAVYYCAADIFYYSSSYGYWGQGTQVTVST	low polyreactivity
QVQLLESGVGLVQAGGSLRLSCAASGTIFVDYAMGWYRQAPGKERQLVAAITSVGRTNYADSVKGRFTISRDNAKNTVYLQMNSLKPEDTAVYYCNKTRYTNYYTTTFDYWGQGTQVTVSS	low polyreactivity
QVQLLETGGGLVQAGRSHRLSCAASGLTFEDYAMGWYRQAPGKESELVAAITYSGGSTYYADSVKGRFTISRDNAKNSVYLQMMSLKPEDTAVSVCAAVSTLRPSWKRYYYWGQGNQVTVSS	high polyreactivity
QVQLLETGRGLFQEGGSLRLSCAASGGTFGAYVMGWYRQAPGKERELVAAISRSGTRTYYADSVKRRFTISRDNEKNTVYLQMNWLKPEDTAVYYCNAVGYTNRYDDWGQGTQVTVSS	high polyreactivity
QVQLLHSGGGKVQAGGRLRLSCAASGFIFCYYAMGWYRQAPGKERELVATISSGGNTYYADSVKGRFTISRDNAKNTVYLQMNSLKPEDTAVYYCAARWGVRPFYSTQYRYYYWGQGTQVTVSS	high polyreactivity
QVQLLQTGGGLVQAGGSLRLSCAASGSNFVIYAMGWYIQAPWNERELVATISGGGRTNYADSLKGRFTISRDNAKNTVYLQMNSLKPEDTAVYYCNGDQYGSYLGVGFDYWGQGTQVTVSS	high polyreactivity
QVQLQDSCGGLVQAGGSLRLNCATSGTIFVLWYMGWYRQAPGKERELVATINHGANTYSADSVKGRFTINRDNGNSTVYLQMNSLQPEDTAVYYCAVYAIIVWGLGYWGQGTQVTVSS	high polyreactivity
QVQLQDSGGGLVQAGGSLRLNCATSGTIFVLWYMGWYRQAPGKERELVATINDGANTYYADSVKGRFTINRDNAYSTVYLKMNSLKPEDTAVYYCAVYAIIVWGLGYWGQGTQVTVSS	high polyreactivity
QVQLQDSGGGLVQAGGSLRLSCAASGTISYRYRMGWYRQAPRKELELVAGISFGSITYYADSVKGRFTISRDNAKNTVYLQMNSLKPEDIAVYYCAVYQKSYRFFPYWGQGTQVTVSS	high polyreactivity
QVQLQDSGGGLVQAGGSLRLSCAASGTIVTARFMGWYRQAPGKERELVATITDGGNTNHADSVKGRFTISRDNAKNTVYLQMNSLKPEDAAVYYCAAGEVDNDTLLYWGQGSQVTVSS	low polyreactivity
QVQLQECGGGLVQAGRSLRLSCAASGTFSNSVKWLYCQAPGKEREFVATIGVGGSTNYADSVKGRFTISRDNAKYTVYLQMNSLKPEDTGVYHCAGYGAASNFHYDRGQGTQVTVSS	low polyreactivity
QVQLQEGGGGLVQAGGSLRLSCAASGYIFNGDWMGWYRQAPGKERELVATINYGATTNYADSVKGRFTISRDNAKNTVYLQMNSLKPEDTAVYYCAVGGHGAQLYVYWGQGTQVTVSN	high polyreactivity
QVQLQEIVGGLVQAGGSLRLSCAASGNNFDADIMGLYRQAPGKERELVASVTDGGSTNYADSVKGRFTISRDNAKNSVYLQMNILKPEDTAVYYCAAIVYPDILTYFDYDYDYFYWGQGTQVTVGS	low polyreactivity
QVQLQERAAWCRRAGSLRLSCAASGNISDYYFMGWYRQAPGKERERVAAIAPGSKTYYADSVKGRFTISRDNAKNTVYLQMNSLKPEDTAVCFCAANSTQYTWFDYWGQGTQVPVSS	low polyreactivity
QVQLQESASGLVQAGGSLRLSCAASGAIFPAYLMGWYRQAPGKERELVAGISYGSITYCADSVKGRFNISRDNAKNTVYLQMNSLKPEDTAVYYCAKDIGVRRRDYEDYEYWGQGTQVTVSS	low polyreactivity
QVQLQESCGALVQAGGTLRLSCAASGSIFEQLDMGWNRQAPGKELEFVAAIGTGSTTYYADSVKGRFSISRDNAKNTVYLQRNSLKPEDTAVYYCAVTYSVYLPFRYWGQGTQVTVSS	high polyreactivity
QVQLQESCGGLVQAGGSLCLSCAASGTIFFDGDMGWYRQAPGKEREFVAAINPGGSAYYADSVKGRLPLAAITHTVYLQMNSLKPEDTAVYYCAAKLFDVYGYYYWGQGTHVTVSS	low polyreactivity
QVQLQESCGGLVQAGGSQRLSCAASAYIFYFQYMGWYRQAPGKEREFVAAISDGANTNYADSVKGRFTISRDNAKNTEYLQMNSLKPEDTAVYYCAVYADENFYYIYWGQGTEVTVSS	low polyreactivity
QVQLQESDGGLVQAGGSLRLSCAASGNIFPTDRMGRYRQAPAKVLEFVATISHGGSTNYADSVKGRFTISRDNATNTVYLQMNSLKPEDTAVYYCAVWSLGRCRHYYWGQGTHVTVSS	low polyreactivity

Sequence	polyreactivity (PSR sort gate)
QVQLQESDGGLVQAGGSLRLSCAASGSISPQYYMGWYRQAPGKEREYVAISKGTTTYSADSVKGRLTISRVNAKNTVYLQMNSLKPEDTAVYCCAAGRWLQKVHAYWDQGTQVTVSS	low polyreactivity
QVQLQESDGGLVQAGGSLRLTCAASGSISPQYYMGWYRQAPGKEREFVAISKGTTTYYADSVKGRLTISRVNANNTVYLQMNSLKPEDTAVYCCAAGRWLQKVHAYWDQGTQVTVSS	low polyreactivity
QVQLQESGAGLVQAGGDLRLSCAASGNIFRDYIMGWYRQAPGKEREFVAGIDRGANTNYADSVKGRFTISRDNAKNTVYLQMNSLKPEDTAVYYCAVHTAIVPDFIYWGQGTQVTVSS	low polyreactivity
QVQLQESGDGLVQAGGSLRLSSAASGTIFSDYGMGGYRQAPGKERELLAGISDGCNTNYTDSVKGRFTISRDNAHRVSADEQPETGGYRGVLLGGSERWLIFYVYWGQGTQVTVSC	high polyreactivity
QVQLQESGDGLVQAGGSLRLSSAASGTIFSDYGMGWYRQAPGKERELLAGISDGCNTNYTDSVKGRFTISRDNAHRVSADDQPETGGYRGVLLRGSERWLLFYVYWGLGTQVTVSS	high polyreactivity
QVQLQESGDGLVQAGGSLRLSSGASGTIVSDYGMGGYRQAPGKERELLAGISDGCNTNYTDSVKGRFTISRDNAHRVSADEQPETGGYLGVLLRGTERWLHFYVYWGQGTQVTVSS	high polyreactivity
QVQLQESGDGLVQALGSLRLSCAASGYISGYYYMGWYRQAPGKERELVAGIDAFGSSTNYADCVKGRFTISRDNAKNTVYLQMNSPKPVDTAVYYCAAEYDDWDYHWYWGEGTQVTVSS	low polyreactivity
QVQLQESGDGLVQAVGSLRLSCAARGYISGYYYMGWYRQAPGKERELVAGIDAFGSSTNYADCVKGRFTISRDNAKNTVYLQMNSLKPEDTAVYYCAARPDGDRLFSYWGQGTQVTVSS	low polyreactivity
QVQLQESGGCLVQAGGSLRLSCAASGTNLYSLGMGWSRQAPGKRREFVASITWGTTTNYAESENGRFTISRDNAKKTVYPQRNSLKPEDTAVYYCAAPPFGDSSYHYWGQATQVTVSS	low polyreactivity
QVQLQESGGDLEQAGGSLRLSCTASGTISDVRVMGWYRQAPGKERELVATISYVTITYYADSVKGRFTISRDSEKHRVSADDEPETGRYGGVLLRYYWGLGTQVTVSS	low polyreactivity
QVQLQESGGGLEQAGGSLRKSCAANGNIFDADIVGRYRQAPGKKPELVDSITDGGITNYADSVKGRFTISRDNAKYTVYLQMNIQNPEDTAVYYCASIAYPDIPTFFDYYSYFFYWGQGTQVTVSS	high polyreactivity
QVQLQESGGGLEQAGGSLRLSCAASGNISSWYPMGWYRQAPGKEREFVATIAPVATTNYADSVKGRFTISRDYAKITVYLQMNSLKPEDTAVNYCAAGPDNNDFYSYWGQGTQVTVSS	low polyreactivity
QVQLQESGGGLEQAGGSLRPSCAASGSISDGVPMGWYRQAPGEERELVATTVLGATTNYADSVKGRFTISRGNAKNTVYLQMNSLKPEETAVYYCAAPLRYDKGFSYWGQGTQVTVSS	low polyreactivity
QVQLQESGGGLMQAGGNLRLSCAASGYISTHYDMDWYRQAPGKERELVARIDDGAITNYADSVKGRFTISRDNAKKTVYLQMNSLKPEDTAVYYCAVYYGDEYYHDYWGQGTQVTVSS	low polyreactivity
QVQLQESGGGLMQAGGSQRLSCAARGSISYYSDMGWYLQAPGKEREFVAGIGYGTTTNYADSVKGRFTTSRDNAKNTVYLQMISMKPEDTAVYYCAAYQGNGYEFYYWGQGTQVTVRS	low polyreactivity
QVQLQESGGGLMQAGGSQRLSCAASGSISYYSDMGWYRQAPGKEREFVAGIGYGTTTNYADSVKGRFTTSRDNAKNTVYLQMISMKPEDSAVYYCAAYQGNGYEFYYWGQGTQVTVRS	low polyreactivity
QVQLQESGGGLVKAGGSLRLSCAASGNISNHNDMGWYRQAPGKESEFVAGITAGGITNYADSVKGRFTISRDNAKNTVYLQMNSLKPEDTAVYYCAAYPDYAKSYGYWGQGTQATVSS	low polyreactivity
QVQLQESGGGLVLAGGSLRLSCSASGNISVYGSMGWYRQAPGKEREFVATIAPGTNTNYADSVKDRFTISRDNAKNTVYLQMNSLKPEDTAVYYCAARHPSSAYWVGYYWYDYWGQGTQVTVSS	low polyreactivity
QVQLQESGGGLVLAGGSLRLSCSASGNISVYGSMGWYRQAPGKEREFVATIDPGTNTNYADSMKDRFTISRDNAKNTVYLQMNSLKPEDTAVYYCAVEAGSDWPYRYWGQGTQVTVSS	low polyreactivity
QVQLQESGGGLVQACGSLRLSCAASGYISHADEMGWYRQAPGKEHELVASISNGGSTNYADSVKGRFTMSRDNAKNTVYLQMNSLKSEDTAVYYCAAWTGQVDIHYYWGQGTKVTVSS	low polyreactivity
QVQLQESGGGLVQAGDSQRLSCAASGNSFRFTHMGWYRQAPGKERELVAASNAGSTTYYADSVKGRFTISRDNAKNTVYLQMKSLKPEDTAVYYCAVYYLGSGTFGYWGQGAQVTVSS	high polyreactivity
